From patent US7166733B2, “O,O'-Amidomalonate and N,O-Amidomalonate platinum complexes” (priority 2000, dated 2007)
Several values for one entry are separate records, joined by “and”; a condition that tells them apart may be missing. Equal entries are not always repeated.

Assay: Percent Pt released versus pH over time in citrate PBS
Assay type: physicochemical
Details: 37° C.
Procedure: A stock solution of citrate PBS that was 10 mM in citrate, 20 mM in phosphate, and 100 mM in NaCl was prepared and split into bottles which were then adjusted to the desired pH. The bottles were warmed to 37° C. in an oven and poly(HPMA)-GFLG-Ama=Pt(NH3)2, N,O-chelate, ˜20 kDa, was added to give a concentration of approximately 2 mg of polymer platinum conjugate per mL buffer. The mixtures were well mixed to give colorless solutions. At the indicated times, three approximately 2.5 mL aliquots were removed from the solution at each pH and transferred to previously washed YM-3 ultracentrifuge devices (Amicon) and spun at 5000 RCF and 37° C. for 50 min. Once all samples for all time points have been collected and prepared, the filtrates and stock solutions are analyzed against Pt standards (0–10 ppm) by ICP-OES at the platinum emission line of 214.42 nm. For each time point and at each pH, three samples were prepared and analyzed.

In the case of “poly(HPMA)-GFLG-Ama=Pt(NH3)2, N,O—Pt chelate [Example 4]”, the “percent Pt released” value (pH 3.4, citrate PBS, 1 h) is reported as 2.0%, the “percent Pt released” value (pH 3.4, citrate PBS, 2 h) is reported as 4.2 ± 0.1% and the “percent Pt released” value (pH 3.4, citrate PBS, 4 h) is reported as 6.6%. The “percent Pt released” value (pH 3.4, citrate PBS, 8 h, 100% N,O-chelate, approx. 20 kDa) was 12% and 12.0 ± 0.1%, the “percent Pt released” value (pH 3.4, citrate PBS, 24 h, 100% N,O-chelate, approx. 20 kDa) was 30% and 29.1 ± 3.9% and the “percent Pt released” value (pH 4.4, citrate PBS, 1 h) was 0.9 ± 0.1%. For the same substance, the “percent Pt released” value (pH 4.4, citrate PBS, 2 h) was 1.9%, the “percent Pt released” value (pH 4.4, citrate PBS, 4 h) was 3.3 ± 0.4% and the “percent Pt released” value (pH 4.4, citrate PBS, 8 h) was 5.1 ± 1.2%. For the same substance, the “percent Pt released” value (pH 4.4, citrate PBS, 24 h) was 17.0 ± 3.6%, the “percent Pt released” value (pH 5.4, citrate PBS, 1 h) was 0.5% and the “percent Pt released” value (pH 5.4, citrate PBS, 2 h) was 0.9 ± 0.08%. The “percent Pt released” value (pH 5.4, citrate PBS, 4 h) was 1.4 ± 0.2%, the “percent Pt released” value (pH 5.4, citrate PBS, 8 h) was 2.6 ± 0.4% and the “percent Pt released” value (pH 5.4, citrate PBS, 24 h) was 7.3%. The “percent Pt released” value (pH 6.4, citrate PBS, 1 h) was 0.4%, the “percent Pt released” value (pH 6.4, citrate PBS, 2 h) was 0.7 ± 0.07% and the “percent Pt released” value (pH 6.4, citrate PBS, 4 h) was 0.9 ± 0.06%. The “percent Pt released” value (pH 6.4, citrate PBS, 8 h) was 1.3 ± 0.1%, the “percent Pt released” value (pH 6.4, citrate PBS, 24 h) was 2.7 ± 0.1% and the “percent Pt released” value (pH 7.4, citrate PBS, 1 h) was 0.36 ± 0.01%. The “percent Pt released” value (pH 7.4, citrate PBS, 2 h) was 0.5 ± 0.07%, the “percent Pt released” value (pH 7.4, citrate PBS, 4 h) was 0.7 ± 0.04% and the “percent Pt released” value (pH 7.4, citrate PBS, 8 h) was 0.9 ± 0.02%. For the same substance, the “percent Pt released” value (pH 7.4, citrate PBS, 24 h) was 1.6 ± 0.0%, the “percent Pt released” value (pH 8.2, citrate PBS, 1 h) was 0.39 ± 0.0% and the “percent Pt released” value (pH 8.2, citrate PBS, 2 h) was 0.7 ± 0.08%. For the same substance, the “percent Pt released” value (pH 8.2, citrate PBS, 4 h) was 0.7 ± 0.04%, the “percent Pt released” value (pH 8.2, citrate PBS, 8 h) was 0.8 ± 0.16% and the “percent Pt released” value (pH 8.2, citrate PBS, 24 h) was 1.8 ± 0.02%.
